Test results taken from article doi:10.1101/758698.

Key:
Assay in all cases: fluorescence polarization
[1] = target: hBrr2T1 (human, UniProt O75643 395-2129)
[2] = target: hBrr2T1-SS-rot+ (human, UniProt O75643 395-2129, D534C;N1866C)
[3] = target: hBrr2T1-SS-linear (human, UniProt O75643 395-2129, M641C;A1582C)

Measured: binding result

Sequence of hBrr2T1 (O75643 395-2129): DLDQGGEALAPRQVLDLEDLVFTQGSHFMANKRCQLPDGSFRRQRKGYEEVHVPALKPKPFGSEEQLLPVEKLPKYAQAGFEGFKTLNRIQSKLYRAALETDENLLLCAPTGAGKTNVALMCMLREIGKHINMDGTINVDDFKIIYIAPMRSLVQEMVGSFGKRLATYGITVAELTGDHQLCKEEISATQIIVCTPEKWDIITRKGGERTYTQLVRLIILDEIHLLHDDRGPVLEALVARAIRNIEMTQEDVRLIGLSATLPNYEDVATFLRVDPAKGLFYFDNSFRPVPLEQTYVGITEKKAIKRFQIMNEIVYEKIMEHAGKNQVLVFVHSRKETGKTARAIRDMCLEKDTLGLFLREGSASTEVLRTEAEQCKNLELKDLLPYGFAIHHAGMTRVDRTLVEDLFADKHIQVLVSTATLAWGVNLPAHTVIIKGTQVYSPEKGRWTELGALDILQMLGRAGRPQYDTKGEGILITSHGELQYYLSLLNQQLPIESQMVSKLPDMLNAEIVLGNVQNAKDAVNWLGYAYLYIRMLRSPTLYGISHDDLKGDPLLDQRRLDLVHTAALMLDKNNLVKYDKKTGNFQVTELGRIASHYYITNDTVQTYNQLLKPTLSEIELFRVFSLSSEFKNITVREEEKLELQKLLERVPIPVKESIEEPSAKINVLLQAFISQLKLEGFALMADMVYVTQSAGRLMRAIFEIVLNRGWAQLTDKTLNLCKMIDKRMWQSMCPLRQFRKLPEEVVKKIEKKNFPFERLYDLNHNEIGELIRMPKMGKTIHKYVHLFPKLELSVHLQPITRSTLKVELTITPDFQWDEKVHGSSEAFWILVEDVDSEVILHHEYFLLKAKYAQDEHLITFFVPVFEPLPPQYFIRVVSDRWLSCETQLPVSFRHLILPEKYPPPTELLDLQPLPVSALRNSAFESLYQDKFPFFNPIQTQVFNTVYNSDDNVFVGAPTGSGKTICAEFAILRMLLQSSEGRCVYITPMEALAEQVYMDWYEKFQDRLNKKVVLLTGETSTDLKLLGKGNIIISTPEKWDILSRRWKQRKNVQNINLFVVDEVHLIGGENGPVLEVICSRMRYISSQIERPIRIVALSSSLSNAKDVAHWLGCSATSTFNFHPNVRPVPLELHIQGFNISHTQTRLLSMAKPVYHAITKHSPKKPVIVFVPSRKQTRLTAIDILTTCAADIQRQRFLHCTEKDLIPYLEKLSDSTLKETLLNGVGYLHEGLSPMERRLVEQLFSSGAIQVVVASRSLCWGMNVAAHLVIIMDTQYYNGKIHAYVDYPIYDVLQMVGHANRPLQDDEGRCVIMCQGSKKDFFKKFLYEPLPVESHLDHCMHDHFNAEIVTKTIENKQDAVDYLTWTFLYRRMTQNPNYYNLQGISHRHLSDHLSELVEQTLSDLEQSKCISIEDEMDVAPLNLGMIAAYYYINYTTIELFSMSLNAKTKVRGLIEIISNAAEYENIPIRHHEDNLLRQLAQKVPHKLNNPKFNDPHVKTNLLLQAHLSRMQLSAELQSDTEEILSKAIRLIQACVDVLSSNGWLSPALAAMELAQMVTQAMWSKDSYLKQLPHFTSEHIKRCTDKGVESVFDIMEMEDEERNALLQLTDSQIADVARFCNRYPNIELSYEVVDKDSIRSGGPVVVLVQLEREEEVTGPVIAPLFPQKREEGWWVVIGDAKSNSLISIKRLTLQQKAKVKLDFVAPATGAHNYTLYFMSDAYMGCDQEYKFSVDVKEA
Sequence of hBrr2T1-SS-linear (O75643 395-2129 M641C/A1582C): as the sequence (O75643 395-2129) above, with M247C, A1188C counted along it
Sequence of hBrr2T1-SS-rot+ (O75643 395-2129 D534C/N1866C): as the sequence (O75643 395-2129) above, with D140C, N1472C counted along it

B1: RNA duplex with 3' ss overhang (dsRNA)
RNA 1: CGCGUGCUGGUCGAAAUUUAAUUAUAAACCAGACCGUC
RNA 2: GACCAGCACGCG
binds: all assays above
